# According to the DeepSol protein solubility set:
# Assay: soluble on expression in E. coli; label from the status in PepcDB or PDB records
row,Sequence,soluble on expression in E. coli
1,AVEPKEDTITVTAAPAPQESAWGPAATIAARQSATGTKTDTPIQKVPQSISVVTAEEMALHQPKSVKEALSYTPGVSVGTRGASNTYDHLIIRGFAAEGQSQNNYLNGLKLQGNFYNDAVIDPYMLERAEIMRGPVSVLYGKSSPGGLLNMVSKRPTTEPLKEVQFKAGTDSLFQTGFDFSDSLDDDGVYSYRLTGLARSANAQQKGSEEQRYAIAPAFTWRPDDKTNFTFLSYFQNEPETGYYGWLPKEGTVEPLPNGKRLPTDFNEGAKNNTYSRNEKMVGYSFDHEFNDTFTVRQNLRFAENKTSQNSVYGYGVCSDPANAYSKQCAALAPADKGHYLARKYVVDDEKLQNFSVDTQLQSKFATGDIDHTLLTGVDFMRMRNDINAWFGYDDSVPLLNLYNPSSHHHHHHGSSVNTDFDFNAKDPANSGPYRILNKQKQTGVYVQDQAQWDKVLVTLGGRYDWADQESLNRVAGTTDKRDDKQFTWRGGVNYLFDNGVTPYFSYSESFEPSSQVGKDGNIFAPSKGKQYEVGVKYVPEDRPIVVTGAVYNLTKTNNLMADPEGSFFSVEGGEIRARGVEIEAKAALSASVNVVGSYTYTDAEYTTDTTYKGNTPAQVPKHMASLWADYTFFDGPLSGLTLGTGGRYTGSSYGDPANSFKVGSYTVVDALVRYDLARVGMAGSNVALHVNNLFDREYVASCFNTYGCFWGAERQVVATATFRF,soluble
2,MSRGVKRVTAITNREREAVLRIEFPNVDVTDIDFDLFQARESTDKPLDVAAAIAYRLLLGSGLPQKFGCSDEVLLNFILQCRKKYRNVPYHNFYHVVDVCQTIYTFLYRGNVYEKLTELECFVLLITALVHDLDHMGLNNSFYLKTESPLGILSSASGNKSVLEVHHCNLAVEILSDPESDVFGGLEGAERTLAFRSMIDCVLATDMARHSEFLEKYLEIMKTSYNVDDSDHRQMTMDVLMKAGDISNVTKPFDVSRQWAMAVTEEFYRQGDMEKERGVEVLPMFDRSKNMELAKGQIGFIDFVAAPFFQKIVDACLQGMQWTVDRTKSNRAQWERVLEARSTGAS,soluble
3,AIAEKLSEWKKFRIDSDKNDWIEQVDISGAKSLYEKEAQDKPLRVLVLYGSLRQRSFTRCCAYEAARLLDHLGADVRVFDPTELPVKGQVEETHHKVQELRELALWSEAQFWCSPEMHGNVTGCFKNQIDWIPLSLGSVRPTQGRTLAICQVNGGSQSFNAVNTLRVLGRWMRMFTIPNQSSIPKAWQEFDEYNRMKPSPLRDRLVDVVEELVKFSLMLRDHSSFHCVCQKL,soluble
4,GPGSMHKDGPRLWDDTLVEAERIATDSKARYLQLPTPDREAEMQRTRSQFFLLLRERVRNTYLRRISKFNPGEPLTWKYISGRKKASLPSPTSMLLGDGQHTYKTARRAANALNRIFLPFHPSHKAVRFSKGINRQSASLNINASFLFGQQNNNESAATSTSGSSLPSSSESQDKNEAATTSGLVAHLHSPLDAPFNRTELLAALRNTPYGKAPGPDEVYSEALRHISSKGLRFLLRCINHSWTTGTIPVEWRRATIVPLLKPGKSPELLESYRPISLTSIVSKVAEKMVLKRLLWVWTPHPHQYAYRSMRTTTMQLAHLIHDVEHNRNHYFQVSLPKKSGIGNQLHYRPHRTLLVLVDFSKAFDSIDHRVLSRLLANIPGVNCRRWLRNFLCGRYAKTRVGHRHSDRRPMLRGVPQGSVL,not soluble
5,MAHHHHHHMGTLEAQTQGPGSMSSSIEIFPDSDILVAAAGKRLVGAIGAAVAARGQALIVLTGGGNGIALLRYLSAQAQQIEWSKVHLFWGDERYVPEDDDERNLKQARRALLNHVDIPSNQVHPMAASDGDFGGDLDAAALAYEQVLAASAAPGDPAPNFDVHLLGMGPEGHINSLFPHSPAVLESTRMVVAVDDSPKPPPRRITLTLPAIQRSREVWLLVSGPGKADAVAAAIGGADPVSVPAAGAVGRQNTLWLLDRDAAAKLPS,soluble
6,MIKKGYHVAVVGATGAVGQKIIELLENEMKFNVVEVTLLSSKRSAGKKVRFKGREIIIQEAKTTSFEGVDIAFFSAGGEVSRQFVTHAVSSGAIVIDNTSEYRMAQGVPLVVPEVNAHTLKQHKGIIAVPNCSALQMVTALQPIRKSFGLERIIVSTYQAVSGSGIHAIHELREQAKSILAGEEVKSDILPVKKDKKHYPIAFNVLPQVDIFTDNDFTFEEVKMIQETKKILEDENLKMAATCVRVPVVSGHSESVYIELEKEASVAEIKGILMDAPGVILQDNPSEQLYPMPLYAEGKIDTFVGRIRKDPDTPNGFHLWIVSDNLLKGAAWNSVQIAETLVEKGIL,not soluble
7,ECPVFEPSWAEFRDPLGYIAKIRPIAEKSGICKIRPPADWQPPFAVEVDNFRFTPRIQRLNEL,not soluble
